Measurements from patent publication US20220177583A1 (University of California, published 2022).
Positions count from the first letter of the chain named.

T1: human CLDN6, endogenously expressed on cancer cell lines (human, UniProt P56747 1-220)
T1 construct: also called Endogenous CLDN6+; CLDN6 on ARK2, OVCA429, UMUC4 cells
T1 sequence: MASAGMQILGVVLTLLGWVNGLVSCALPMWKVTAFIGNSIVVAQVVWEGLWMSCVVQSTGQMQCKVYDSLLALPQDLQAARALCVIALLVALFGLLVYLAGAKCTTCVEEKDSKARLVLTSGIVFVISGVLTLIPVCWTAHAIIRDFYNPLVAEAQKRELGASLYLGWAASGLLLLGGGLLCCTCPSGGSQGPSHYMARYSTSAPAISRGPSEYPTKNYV

T2: mouse CLDN6 fused to GFP, expressed on engineered HEK293T cells (mouse, UniProt Q9Z262 1-219)
T2 construct: whole, on cells; also called HEK293T-CLDN6-mGFP Artificial CLDN6+ (mouse); murine CLDN6; not shown: GFP tag
T2 sequence (looked up): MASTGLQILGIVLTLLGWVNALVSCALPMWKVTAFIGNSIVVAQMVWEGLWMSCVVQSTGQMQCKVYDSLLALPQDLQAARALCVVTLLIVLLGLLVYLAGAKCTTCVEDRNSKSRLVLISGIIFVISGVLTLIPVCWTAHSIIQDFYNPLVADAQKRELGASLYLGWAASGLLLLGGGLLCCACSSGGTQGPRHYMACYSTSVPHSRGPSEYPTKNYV

T3: CLDN9-GFP expressed on engineered HEK293T cells (human, UniProt O95484 1-217)
T3 construct: whole, on cells; also called HEK293T CLDN9-mGFP; Artificial CLDN9+; not shown: GFP tag
T3 sequence (looked up): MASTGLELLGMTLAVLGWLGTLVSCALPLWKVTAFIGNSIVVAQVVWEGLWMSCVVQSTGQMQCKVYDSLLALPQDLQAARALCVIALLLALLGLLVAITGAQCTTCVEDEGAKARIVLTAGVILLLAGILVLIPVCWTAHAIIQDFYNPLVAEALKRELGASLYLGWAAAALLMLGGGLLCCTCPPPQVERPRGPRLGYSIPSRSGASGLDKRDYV

B1: AB3-7 (antibody, V domains shown)
VH: EVQLLESGGGLVQPGGSMRLSCAASGFTFSNYWMNWVRQAPGKGLEWVAQIRLKSDNYATHYADSVKGRFTISRDDSKNTVYLQMNSLRAEDTGVYYCNDGPPSGSWGQGTLLTVSS
VL: DIQMTQSPSSLSASVGDRVTITCRISENIYSYLAWYQQKPGKAPKLLVYNAKILVEGVPSRFSGSGSGTDFTLTISSLQPEDFGTYYCQHHYTVPWTFGQGTKLEIK
notes: Humanized; also called humanized AB3-7; AB23
B2: AB18 (antibody, V domains shown)
VH: QVQLKQSGPELEKPGASVKISCKASGYSFTGYNMNWVKQSNGKSLEWIGNIDPYYGGSTYNQKFTGKATLTVDKSSSTAYMQLKSLTSEDSAVYYCARERSGYVFSAMDYWGQGTSVTVSS
VL: NIMMTQSPSSLAVSAGEKVTMSCKSSQSVLFSSNQKNYLAWYQQKPGQSPRLLIYWASTRESGVPDRFTGSGSGTDFTLTISNVQAEDLAVYYCHQYLSSRTFGAGTKLELK
notes: Full-length IgG (ExpiCHO)
B3: AB13 (antibody, V domains shown)
VH: QVQLQQSGAELVRPGTSVKVSCKASGYAFSNYLIEWVKQRPGQGLEWIGVINPGSGGTNYNEKFKGKATMTADKSSSTAYMHLSNLTSEDSVVYFCARSYFGRSYPYTMDYWGQGTSVTVSS
VL: EIVLTQSPTTMAASPGEKITITCSASSSISSNYLHWYQQKPGFSPKLLIYRTSNLASGVPARFSGSGSGTSYSLTIGTMEAEDVATYYCQQGSSIPLTFGAGTKLELK
notes: Full-length IgG (ExpiCHO)
B4: AB4 (antibody, V domains shown)
VH: QVQLQQSGAELARPGASVKMSCKASGYTFTSYTMHWIKQRPGQGQEWIGYINPSSTYTHYIKKFKDKATLTADKSSSTAYMQLRSLTSEDSAVYYCSRGELGGFAYWGQGTLVTVSA
VL: DVVMTQTPLSLPVSLGDQASISCRSSQSLVHSDGNTYLNWYLQKPGQSPKLLIYKVSNRFSGVPDRFSGSGSGTDFTLKIRRVEAEDLGVYFCSQSTHVPYTFGGGTKLEIK
notes: Full-length IgG (ExpiCHO)
B5: AB10 (antibody, V domains shown)
VH: QIQLVQSGPALKKPGETVKISCKASGYTFTDYSMHWIKQAPGKGLKWMGWISTETGEPTYADGFKGRFDFSLETSADTAYLSINNLTNEDTATYFCTRGLWSSFAYWGQGTLVTVSA
VL: B4 VL with S25A, D33N, N39H, Y41F, G73R, R81S, S96I
notes: Full-length IgG (ExpiCHO)
B6: AB2 (antibody, V domains shown)
VH: EVKLEESGGGLVQPGGSMKLSCVASGFTFSDYWMNWVRQSPEKGLEWVAQIRLKSDNYATHYAESVKGRFTISRDDSKRSVYLQMNNLRAEDTGTYYCNDGPPSGCWGQGTTLIVSS
VL: DIQMTQSPASLSASVGETVTITCRISENIYSYLAWYQQKQGKSPQLLVYNAKILVEGVPSRFSGSGSGTQFSLKINSLQPEDFGNYYCQHHYTVPWTFGGGTKLEIK
notes: Full-length IgG (ExpiCHO)
B7: AB3 (antibody, V domains shown)
VH: B6 VH with D31N
VL: B6 VL
notes: Full-length IgG (ExpiCHO)
B8: AB1 (antibody, V domains shown)
VH: QVQLQQSAAELARPGASVKMSCKASGYTFTTYTMHWVKQRPGQGLEWIGFINPSSGYTDYNQKFKDRTTLTADKSSSTVYMQLSSLTSEDSAVYYCANGDYYVAYWGQGTLVTVSA
VL: QIVLTQSPAIMSASLGERVTMTCTASSSVSSTYFHWYQQKPGSSPKLWIYSTSNLASGVPRRFSGSASGTSYSLTISSMEAEDAATYYCHQYHRSPLTFGAGTKLELK
notes: Full-length IgG (ExpiCHO)
B9: AB5 (antibody, V domains shown)
VH: EVQLQQSGPELVKPGASVKMSCKASGYIFTHYIMHWVKQKPGQGLEWIGCINPYNDGTKYNEKFKGKATLTSDKSSSTAYMELSSLTSEDSAVYYCARYYGYPYYSMDYWGQGTSVTVSS
VL: DVLMTQTPLSLPVSLGDQPSISCRSSQSIVHSNGNTYLDWYLQKPGQSPKLLIYKVSNRFSGVPDRFSGSGSGTDFTLKISRVEAEDLGVYYCFQGSHVPFTFGSGTRLEIK
notes: Full-length IgG (ExpiCHO)
B10: AB9 (antibody, V domains shown)
VH: EVQLQQSGPELVKPGASVKMSCKASGYRFTDYNMHWVKQSHGKSLEWIGYINPNNGGTNYNQNFKGKATLTVNKSSSTAYMELRSLTSEDSAAYYCARDYLYFFDCWGQGTTLTVSS
VL: DIQMTQSPASQSASLGESVTITCLASQTIGTWLAWYQQKPGKSPQLLIYAAASLADGVPSRFSGSGSGTRFSFKISSLQAEDFVSYYCQQLYSIPRTFGGGTKLEIK
notes: Full-length IgG (ExpiCHO)
B11: AB14 (antibody, V domains shown)
VH: QVQLQQSGPELVRPGVSVKISCKGSGYTFTDYAMHWVKQSHAKSLEWIGVISTYSGNTNYNQKFQDKATMTVDKSSSTAYMALARLTSDDSAIYYCARRGDYSLYAMDYWGQGTSVTVSS
VL: DIVLTQSPASLAVSLGQRATISCKASQSVDYDGDNYVNWYQQKVGQPPKLLISAASNLESGIPARFSGSGSGTDFTLNIHPVEEEDAATYYCQQSNEDPFTFGSGTKLEIK
notes: Full-length IgG (ExpiCHO)
B12: AB3-7 conjugated to MC-VC-PAB-MMAE (conventional) (antibody, V domains shown)
VH: B1 VH
VL: B1 VL
modifications: MC-VC-PAB-MMAE conjugated to the antibody, heterogeneous (conventional); sites not stated
notes: Antibody-drug conjugate of humanized AB3-7 (WuXi Biologics); also called CLDN6 ADC; ADC-23 (conventional)
B13: AB3-7 conjugated to MC-GGFG-DXD (antibody, V domains shown)
VH: B1 VH
VL: B1 VL
modifications: MC-GGFG-DXD conjugated to the antibody; sites not stated
notes: Antibody-drug conjugate of humanized AB3-7; also called CLDN6 ADC
B14: AB3-7 conjugated to CL2A-SN38 (D4 technology) (antibody, V domains shown)
VH: B1 VH
VL: B1 VL
modifications: CL2A-SN38 conjugated to the antibody (D4); sites not stated
notes: as for B13
B15: AB3-7 conjugated to MC-VC-PAB-MMAE (D4 technology) (antibody, V domains shown)
VH: B1 VH
VL: B1 VL
modifications: MC-VC-PAB-MMAE conjugated to the antibody, substantially 4 drugs per antibody (D4); sites not stated
notes: Antibody-drug conjugate of humanized AB3-7; also called CLDN6 ADC; ADC-23 (D4 technology)
B16: AB3-7 conjugated to MC-GGFG-MMAE (D4 technology) (antibody, V domains shown)
VH: B1 VH
VL: B1 VL
modifications: MC-GGFG-MMAE conjugated to the antibody (D4); sites not stated
notes: as for B13
B17: AB3-7 conjugated to MC-VC-PAB-DXD (antibody, V domains shown)
VH: B1 VH
VL: B1 VL
modifications: MC-VC-PAB-DXD conjugated to the antibody; sites not stated
notes: as for B13
B18: AB3-7 conjugated to CL2A-SN38 (conventional) (antibody, V domains shown)
VH: B1 VH
VL: B1 VL
modifications: CL2A-SN38 conjugated to the antibody, heterogeneous (conventional); sites not stated
notes: as for B13

molecular target: T1, human CLDN6, endogenously expressed on …; experiment: FACS, ARK2 cells, 0.3 ug Ab

| FACS signal | Binder |
| --- | --- |
| 36000 | B1 |

molecular target: T1, human CLDN6, endogenously expressed on …; experiment: FACS, ARK2 cells, 1.5 ug Ab

| FACS signal | Binder |
| --- | --- |
| 90400 | B1 |

molecular target: T2, mouse CLDN6 fused to GFP, expressed on …; experiment: FACS, 293T clone with mouse CLDN6

| FACS signal | Binder |
| --- | --- |
| 56100 | B1 |

molecular target: T1, human CLDN6, endogenously expressed on …; experiment: FACS dose curve, labelled mAb, ARK2 cells

| EC50 [µM] | Binder |
| --- | --- |
| 1.35 | B2 |
| 1.15 | B3 |
| 0.048 | B4 |
| 2.14 | B5 |
| 1.36 | B6 |
| 1.65 | B7 |
| 0.105 | B8 |
| 0.008 | B9 |
| 1.14 | B10 |
| 1.3 | B11 |

molecular target: T1, human CLDN6, endogenously expressed on …; experiment: FACS dose curve, labelled mAb, OVCA429 cells

| EC50 [µM] | Binder |
| --- | --- |
| 2.44 | B2 |
| 2.29 | B3 |
| 0.168 | B4 |
| 2.47 | B5 |
| 0.912 | B6 |
| 1.1 | B7 |
| 0.084 | B8 |
| 0.005 | B9 |
| 1.17 | B10 |
| 1.66 | B11 |

molecular target: T3, CLDN9-GFP expressed on engineered …; experiment: FACS dose curve, labelled mAb, HEK293T CLDN9-mGFP cells

| EC50 [µM] | Binder |
| --- | --- |
| 1.86 | B4 |
| 0.246 | B5 |
| 2.77 | B8 |
| 0.025 | B9 |

molecular target: T2, mouse CLDN6 fused to GFP, expressed on …; experiment: FACS dose curve, labelled mAb, HEK293T-CLDN6-mGFP (mouse) cells

| EC50 [µM] | Binder |
| --- | --- |
| ≥ 5 | B4 |
| ≥ 5 | B6 |
| 2.49 | B7 |
| 0.072 | B8 |
| 0.011 | B9 |

molecular target: T1, human CLDN6, endogenously expressed on …; experiment: flow cytometry on UMUC4 cells (Positive Cell Line), anti-human IgG Fc secondary antibody

| flow cytometry signal at 0.1µg Ab/Sample | flow cytometry signal at 1µg Ab/Sample | Binder |
| --- | --- | --- |
| 8910 | 28800 | B12 |
| 10500 | 32800 | B13 |
| 9140 | 34600 | B14 |
| 9450 | 25900 | B15 |
| 8820 | 27300 | B1 |
| 8790 | 31600 | B16 |
| 10800 | 32600 | B17 |
| 9990 | 33800 | B18 |
